Series [1] relates to GST-DEK WT (Homo sapiens). Kind of series: EMSA (agarose). The settings on record: 20 mM Hepes-KOH pH 7.6, 100 mM NaCl, 10 mM NaHSO3, 1 mM EDTA, 1 ug/ml BSA; 30 ul, 1 h at 37 C; 0.6% agarose gel in TBE. PAR overlay assays (poly(ADP-ribose) …); scale: DEK:DNA molar ratio at first detectable shift. Background: A gel shift assay detects complexes by their altered migration in electrophoresis.

Series [2] relates to GST-DEK PBD2-Mut2 (Homo sapiens). Kind of series: EMSA (agarose). The settings on record: only slightly reduced; indistinguishable from WT at higher molar ratios; 20 mM Hepes-KOH pH 7.6, 100 mM NaCl, 10 mM NaHSO3, 1 mM EDTA, 1 ug/ml BSA; 30 ul, 1 h at 37 C; 0.6% agarose gel in TBE. PAR overlay assays (poly(ADP-ribose) …); scale: DEK:DNA molar ratio at first detectable shift.

On to plasmid DNA (unnamed), for which the results for the binding signal in series [1] and in series [2] were 84 and 112, respectively.

(Values after PMC6692024.)
